This is an account of results in PMC11868391, “The p3 peptides (Aβ_(17-40/42)) rapidly form amyloid fibrils that cross-seed with full-length Aβ” (Nature Communications, 2025).

The target of one assay is Full-length Aβ42. Put plainly: cell-based or functional assay.
A further assay addresses Full-length Aβ40. Put plainly: cell-based or functional assay.

Where only a bound is given, the exact number is not on record here.

B1: p3_(42) Peptide Aβ_(17-42) (peptide)
peptide: LVFFAEDVGSNKGAIIGLMVGGVVIA
notes: numbers count on: the Aβ peptide; Used as SEC-purified monomer, as lag-phase oligomer preparation and as fibril seeds; source: synthetic peptide, bought: EZBiolab Inc; solubilized at pH 10, monomer isolated by SEC
Consider B1, for which, in the assay with Full-length Aβ42, the “t50 of ThT fibril growth of Aβ42 monomer with p3_(42) fibril seeds (10% w/w), as a percentage relative to self-seeding” value is > 70 % relative to self-seeding t50.

B2: p3_(40) Peptide Aβ_(17-40) (peptide)
peptide: LVFFAEDVGSNKGAIIGLMVGGVV
notes: as for B1
B2: the “t50 of ThT fibril growth of Aβ40 monomer with p3_(40) fibril seeds (10% w/w), as a percentage relative to self-seeding” value in the assay with Full-length Aβ40 is 70 % relative to self-seeding t50.
